Laboratory results published in patent publication US20210380640A1.
Read-outs that look alike come from different tables or passages of the source. Values belong to the substance of their own block, whether it stands above or below them.

What was measured:
[1] = target: SARS-CoV-2 spike protein (SARS-CoV-2) (UniProt P0DTC2)
[2] = target: full-length recombinant MrkA protein with an N-terminal 6xHis-SUMO-tag (MyBiosource, MBS1248970) (Klebsiella pneumoniae) (UniProt P12267); test: sandwich ELISA 3, PCC immobilised, MrkA 50 nM; reference cy(LLFFF)
[3] = target: full-length recombinant MrkA protein with an N-terminal 6xHis-SUMO-tag (MyBiosource, MBS1248970) (Klebsiella pneumoniae) (UniProt P12267); test: sandwich ELISA 4, PCC immobilised, MrkA 100 nM; reference cy(LLFFF)
[4] = target: SARS-CoV-2 spike protein (SARS-CoV-2) (UniProt P0DTC2); remark: listed apart in the source
[5] = target: full-length recombinant MrkA protein with an N-terminal 6xHis-SUMO-tag (MyBiosource, MBS1248970) (Klebsiella pneumoniae) (UniProt P12267); test: ELISA, PCC immobilised, full-length recombinant MrkA
[6] = target: full-length recombinant MrkA protein with an N-terminal 6xHis-SUMO-tag (MyBiosource, MBS1248970) (Klebsiella pneumoniae) (UniProt P12267); test: sandwich ELISA 5, PCC immobilised, MrkA 25 nM; the reference itself
[7] = target: full-length recombinant MrkA protein with an N-terminal 6xHis-SUMO-tag (MyBiosource, MBS1248970) (Klebsiella pneumoniae) (UniProt P12267); test: sandwich ELISA 3, PCC immobilised, MrkA 50 nM; the reference itself
[8] = target: full-length recombinant MrkA protein with an N-terminal 6xHis-SUMO-tag (MyBiosource, MBS1248970) (Klebsiella pneumoniae) (UniProt P12267); test: sandwich ELISA 1, PCC immobilised, [MrkA] N/A; the reference itself
[9] = target: full-length recombinant MrkA protein with an N-terminal 6xHis-SUMO-tag (MyBiosource, MBS1248970) (Klebsiella pneumoniae) (UniProt P12267); test: sandwich ELISA 4, PCC immobilised, MrkA 100 nM; the reference itself
[10] = target: full-length recombinant MrkA protein with an N-terminal 6xHis-SUMO-tag (MyBiosource, MBS1248970) (Klebsiella pneumoniae) (UniProt P12267); test: sandwich ELISA 6, PCC immobilised, MrkA 25 nM; the reference itself
[11] = target: full-length recombinant MrkA protein with an N-terminal 6xHis-SUMO-tag (MyBiosource, MBS1248970) (Klebsiella pneumoniae) (UniProt P12267); test: sandwich ELISA 2, PCC immobilised, MrkA 25 nM; the reference itself
[12] = target: full-length recombinant MrkA protein with an N-terminal 6xHis-SUMO-tag (MyBiosource, MBS1248970) (Klebsiella pneumoniae) (UniProt P12267); test: sandwich ELISA, biotinylated PCC immobilised, His-SUMO-MrkA titrated (FIG. 3A)
[13] = target: full-length recombinant MrkA protein with an N-terminal 6xHis-SUMO-tag (MyBiosource, MBS1248970) (Klebsiella pneumoniae) (UniProt P12267); test: sandwich ELISA 5, PCC immobilised, MrkA 25 nM; reference cy(LLFFF)
[14] = target: full-length recombinant MrkA protein with an N-terminal 6xHis-SUMO-tag (MyBiosource, MBS1248970) (Klebsiella pneumoniae) (UniProt P12267); test: sandwich ELISA 2, PCC immobilised, MrkA 25 nM; reference cy(LLFFF)
[15] = target: full-length recombinant MrkA protein with an N-terminal 6xHis-SUMO-tag (MyBiosource, MBS1248970) (Klebsiella pneumoniae) (UniProt P12267); test: sandwich ELISA 6, PCC immobilised, MrkA 25 nM; reference cy(LLFFF)

Substance: eprnn (peptide)
EC50 [1]: 11 nM

Substance: cy(AAFFF) (peptide)
Relative affinity (ratio of ELISA signal to cy(LLFFF)) [2]: 0.15

Substance: cy(TTFFF) (peptide)
Relative affinity (ratio of ELISA signal to cy(LLFFF)) [3]: 0.04

Substance: nnpdh (peptide)
EC50 [4]: 3.8 nM

Substance: G1Gld (peptide)
EC50 [4]: 4.2 nM

Substance: cy(LLFFF), biotinylated (peptide)
EC50 [5]: 230 nM
Relative affinity (ratio of ELISA signal to cy(LLFFF)) [6]: 1
Relative affinity (ratio of ELISA signal to cy(LLFFF)) [7]: 1
Relative affinity (ratio of ELISA signal to cy(LLFFF)) [8]: 1
Relative affinity (ratio of ELISA signal to cy(LLFFF)) [9]: 1
Relative affinity (ratio of ELISA signal to cy(LLFFF)) [10]: 1
Relative affinity (ratio of ELISA signal to cy(LLFFF)) [11]: 1
EC50 [12]: 50 nM

Substance: cy(LLFFF)+R3 (peptide)
Relative affinity (ratio of ELISA signal to cy(LLFFF)) [13]: 0.9

Substance: cy(LLAFF) (peptide)
Relative affinity (ratio of ELISA signal to cy(LLFFF)) [14]: 0.59

Substance: ykdld (peptide)
EC50 [1]: 4 nM

Substance: fdtta (peptide)
EC50 [1]: 3.2 nM

Substance: cy(LLFFF)+R9 (peptide)
Relative affinity (ratio of ELISA signal to cy(LLFFF)) [13]: 0.58

Substance: skdfd (peptide)
EC50 [1]: 3.2 nM

Substance: cy(ALFFF) (peptide)
Relative affinity (ratio of ELISA signal to cy(LLFFF)) [14]: 0.53

Substance: cy(DLFFF) (peptide)
Relative affinity (ratio of ELISA signal to cy(LLFFF)) [15]: 0.21

Substance: dynGp (peptide)
EC50 [1]: 2.9 nM

Substance: aakrG (peptide)
EC50 [1]: 16.4 nM

Substance: cy(LAFFF) (peptide)
Relative affinity (ratio of ELISA signal to cy(LLFFF)) [14]: 0.26

Substance: cy(LLFAF) (peptide)
Relative affinity (ratio of ELISA signal to cy(LLFFF)) [14]: 0.1

Substance: cy(HLFFF) (peptide)
Relative affinity (ratio of ELISA signal to cy(LLFFF)) [15]: 0.81

Substance: cy(LLFFA) (peptide)
Relative affinity (ratio of ELISA signal to cy(LLFFF)) [14]: 0.04

Substance: avtr (peptide)
EC50 [1]: 3.4 nM

Substance: cy(LLFFF)+R6 (peptide)
Relative affinity (ratio of ELISA signal to cy(LLFFF)) [13]: 1.22

Substance: nkvyG (peptide)
EC50 [1]: 4.4 nM

Next, values leading:

EC50 [1]: 2.9 nM
Substance: dyGvd (peptide)

EC50 [4]: 4.2 nM
Substance: andkd (peptide)

EC50 [1]: 3.8 nM
Substance: senfd (peptide)

EC50 [4]: 4.1 nM
Substance: dpvtd (peptide)

EC50 [4]: 4.2 nM
Substance: ydrsd (peptide)

EC50 [4]: 3.1 nM
Substance: tGarn (peptide)

EC50 [1]: 3.6 nM
Substance: tsthG (peptide)

EC50 [1]: 4.6 nM
Substance: skevd (peptide)

EC50 [4]: 4.2 nM
Substance: sdyre (peptide)

EC50 [4]: 3.4 nM
Substance: GGarn (peptide)

EC50 [1]: 4.3 nM
Substance: edlvk (peptide)
